{
  "source": "paper PMC4108063",
  "key": {"hERG-R582A (human) [1]": {"biological_target": "hERG-R582A (human) (UniProt Q12809)"}, "hERG-I583A (human) [2]": {"biological_target": "hERG-I583A (human) (UniProt Q12809)"}, "hERG-H587A (human)": {"biological_target": "hERG-H587A (human) (UniProt Q12809)"}, "hERG-P596A (human)": {"biological_target": "hERG-P596A (human) (UniProt Q12809)"}, "hERG-Y597A (human)": {"biological_target": "hERG-Y597A (human) (UniProt Q12809)"}, "hERG-N588A (human)": {"biological_target": "hERG-N588A (human) (UniProt Q12809)"}, "hERG-S631A (human)": {"biological_target": "hERG-S631A (human) (UniProt Q12809)"}, "[3]": {"biological_target": "human ether-a-go-go-related gene potassium channel (hERG), wild type (human) (UniProt Q12809)"}, "hERG-R582A (human) [4]": {"biological_target": "hERG-R582A (human) (UniProt Q12809)", "remark": "listed apart in the source"}, "hERG-L586A (human)": {"biological_target": "hERG-L586A (human) (UniProt Q12809)"}, "hERG-N598A (human)": {"biological_target": "hERG-N598A (human) (UniProt Q12809)"}, "hERG-D591A (human)": {"biological_target": "hERG-D591A (human) (UniProt Q12809)"}, "hERG-K610A (human)": {"biological_target": "hERG-K610A (human) (UniProt Q12809)"}, "hERG-I583A (human) [5]": {"biological_target": "hERG-I583A (human) (UniProt Q12809)", "remark": "listed apart in the source"}, "hERG-Q592A (human)": {"biological_target": "hERG-Q592A (human) (UniProt Q12809)"}, "hERG-K608A (human)": {"biological_target": "hERG-K608A (human) (UniProt Q12809)"}, "hERG-K595A (human)": {"biological_target": "hERG-K595A (human) (UniProt Q12809)"}, "hERG-T613A (human)": {"biological_target": "hERG-T613A (human) (UniProt Q12809)"}, "hERG-S600A (human)": {"biological_target": "hERG-S600A (human) (UniProt Q12809)"}, "[6]": {"biological_target": "human ether-a-go-go-related gene potassium channel (hERG), wild type (human) (UniProt Q12809)", "remark": "listed apart in the source"}},
  "note": "Read-outs that look alike come from different tables or passages of the source.",
  "data": [
    {"substance": "scorpion toxin BmKKx2 (peptide)", "values": [
      {"measurement": "percent of mutant hERG channel currents inhibited by 100 nM BmKKx2, whole-cell patch clamp", "setting": "hERG-R582A (human) [1]", "value": 70, "unit": "%"},
      {"measurement": "percent of mutant hERG channel currents inhibited by 100 nM BmKKx2, whole-cell patch clamp", "setting": "hERG-I583A (human) [2]", "value": 70, "unit": "%"},
      {"measurement": "IC50 (half-maximum inhibition concentration) of mutant hERG channel currents, whole-cell patch clamp on transfected HEK293 cells", "setting": "hERG-H587A (human)", "value": 0.0597, "unit": "µM"},
      {"measurement": "IC50 (half-maximum inhibition concentration) of mutant hERG channel currents, whole-cell patch clamp on transfected HEK293 cells", "setting": "hERG-P596A (human)", "value": 0.0608, "unit": "µM"},
      {"measurement": "IC50 (half-maximum inhibition concentration) of mutant hERG channel currents, whole-cell patch clamp on transfected HEK293 cells", "setting": "hERG-Y597A (human)", "value": 0.118, "unit": "µM"},
      {"measurement": "IC50 (half-maximum inhibition concentration) of mutant hERG channel currents, whole-cell patch clamp on transfected HEK293 cells", "setting": "hERG-N588A (human)", "value": 0.0145, "unit": "µM"},
      {"measurement": "IC50 (half-maximum inhibition concentration) of mutant hERG channel currents, whole-cell patch clamp on transfected HEK293 cells", "setting": "hERG-S631A (human)", "value": 0.698, "unit": "µM"},
      {"measurement": "IC50 (half-maximum inhibition concentration) of hERG channel currents, whole-cell patch clamp on transfected HEK293 cells", "setting": "[3]", "value": 0.0067, "unit": "µM"},
      {"measurement": "IC50 (half-maximum inhibition concentration) of mutant hERG channel currents, whole-cell patch clamp on transfected HEK293 cells", "setting": "hERG-R582A (human) [4]", "value": 0.0765, "unit": "µM"},
      {"measurement": "IC50 (half-maximum inhibition concentration) of mutant hERG channel currents, whole-cell patch clamp on transfected HEK293 cells", "setting": "hERG-L586A (human)", "value": 0.0243, "unit": "µM"},
      {"measurement": "IC50 (half-maximum inhibition concentration) of mutant hERG channel currents, whole-cell patch clamp on transfected HEK293 cells", "setting": "hERG-N598A (human)", "value": 0.0152, "unit": "µM"},
      {"measurement": "IC50 (half-maximum inhibition concentration) of mutant hERG channel currents, whole-cell patch clamp on transfected HEK293 cells", "setting": "hERG-D591A (human)", "value": 0.0196, "unit": "µM"},
      {"measurement": "IC50 (half-maximum inhibition concentration) of mutant hERG channel currents, whole-cell patch clamp on transfected HEK293 cells", "setting": "hERG-K610A (human)", "value": 0.0067, "unit": "µM"},
      {"measurement": "IC50 (half-maximum inhibition concentration) of mutant hERG channel currents, whole-cell patch clamp on transfected HEK293 cells", "setting": "hERG-I583A (human) [5]", "value": 0.0875, "unit": "µM"},
      {"measurement": "IC50 (half-maximum inhibition concentration) of mutant hERG channel currents, whole-cell patch clamp on transfected HEK293 cells", "setting": "hERG-Q592A (human)", "value": 0.0895, "unit": "µM"},
      {"measurement": "IC50 (half-maximum inhibition concentration) of mutant hERG channel currents, whole-cell patch clamp on transfected HEK293 cells", "setting": "hERG-K608A (human)", "value": 0.116, "unit": "µM"},
      {"measurement": "IC50 (half-maximum inhibition concentration) of mutant hERG channel currents, whole-cell patch clamp on transfected HEK293 cells", "setting": "hERG-K595A (human)", "value": 0.0652, "unit": "µM"},
      {"measurement": "IC50 (half-maximum inhibition concentration) of mutant hERG channel currents, whole-cell patch clamp on transfected HEK293 cells", "setting": "hERG-T613A (human)", "value": 0.0426, "unit": "µM"},
      {"measurement": "IC50 (half-maximum inhibition concentration) of mutant hERG channel currents, whole-cell patch clamp on transfected HEK293 cells", "setting": "hERG-S600A (human)", "value": 0.0121, "unit": "µM"},
      {"measurement": "IC50 (half-maximum inhibition concentration) of hERG channel currents, whole-cell patch clamp on transfected HEK293 cells", "setting": "[6]", "value": 0.0267, "unit": "µM"}
    ]}
  ]
}
